Measured values as given in publication PMC3788043 (Journal of the American Society for Mass Spectrometry, 2013).

Tests used:
cross-linking = target: the molecule itself; experiment: cross-linking
[1] = target: urease apoprotein (UreABC)3 (Klebsiella aerogenes, UniProt P18316 1-100; P18315 1-106; P18314 1-567); experiment: native MS
urease apoprotein (UreABC)3, sequence (P18316 whole entry, chain 1 of 3): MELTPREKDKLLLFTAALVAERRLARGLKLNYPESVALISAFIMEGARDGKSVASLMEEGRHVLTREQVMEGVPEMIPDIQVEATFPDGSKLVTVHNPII
urease apoprotein (UreABC)3, sequence (P18315 whole entry, chain 2 of 3): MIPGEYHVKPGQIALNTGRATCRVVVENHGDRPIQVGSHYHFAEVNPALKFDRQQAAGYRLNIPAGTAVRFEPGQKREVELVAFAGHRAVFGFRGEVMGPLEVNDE
urease apoprotein (UreABC)3, sequence (P18314 whole entry, chain 3 of 3): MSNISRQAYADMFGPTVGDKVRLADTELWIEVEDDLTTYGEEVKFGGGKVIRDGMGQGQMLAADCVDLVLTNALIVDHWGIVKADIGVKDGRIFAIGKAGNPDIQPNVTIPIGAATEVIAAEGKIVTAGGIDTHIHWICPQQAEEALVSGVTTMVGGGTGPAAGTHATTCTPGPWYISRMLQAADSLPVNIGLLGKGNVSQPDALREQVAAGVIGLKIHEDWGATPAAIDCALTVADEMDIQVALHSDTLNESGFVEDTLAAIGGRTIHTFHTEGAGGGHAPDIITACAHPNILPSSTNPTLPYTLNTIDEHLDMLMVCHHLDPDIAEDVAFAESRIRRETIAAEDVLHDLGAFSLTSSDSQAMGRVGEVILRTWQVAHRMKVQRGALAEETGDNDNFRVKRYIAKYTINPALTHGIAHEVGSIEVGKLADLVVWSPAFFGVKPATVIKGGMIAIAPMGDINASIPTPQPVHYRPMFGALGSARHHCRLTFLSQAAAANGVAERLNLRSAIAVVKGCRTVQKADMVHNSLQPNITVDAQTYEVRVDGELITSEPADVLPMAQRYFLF

| Binder | binding result (cross-linking) | binding result [1] |
| --- | --- | --- |
| K165A variant of UreF (natural protein) MSTAEQRLRLMQLASSNLPVGGYSWSQGLEWAVEAGWVLDVAAFERWQRRQMTEGFFTVDLPLFARLYRACEQGDIAAAQRWTAYLLACRETRELREEERNRGAAFARLLSDWQPDCPPPWRSLCQQSQLAGMAWLGVRWRIALPEMALSLGYSWIESAVMAGVALVPFGQQAAQQLILRLCDHYAAEMPRALAAPDGDIGSATPLAAIASARHETQYSRLFRS | binds |  |
| maltose binding protein fusion of UreD (MBP-UreD) (natural protein, Klebsiella aerogenes, UniProt Q09063 1-270, looked up) MLPPLKKGWQATLDLRFHQAGGKTVLASAQHVGPLTVQRPFYPEEETCHLYLLHPPGGIVGGDELTISAHLAPGCHTLITMPGASKFYRSSGAQALVRQQLTLAPQATLEWLPQDAIFFPGANARLFTTFHLCASSRLLAWDLLCLGRPVIGETFSHGTLSNRLEVWVDNEPLLVERLHLQEGELSSIAERPWVGTLLCYPATDALLDGVRDALAPLGLYAGASLTDRLLTVRFLSDDNLICQRVMRDVWQFLRPHLTGKSPVLPRIWLT |  | binds |
| MBP-UreD:UreF (complex, Klebsiella aerogenes) chain 1: MLPPLKKGWQATLDLRFHQAGGKTVLASAQHVGPLTVQRPFYPEEETCHLYLLHPPGGIVGGDELTISAHLAPGCHTLITMPGASKFYRSSGAQALVRQQLTLAPQATLEWLPQDAIFFPGANARLFTTFHLCASSRLLAWDLLCLGRPVIGETFSHGTLSNRLEVWVDNEPLLVERLHLQEGELSSIAERPWVGTLLCYPATDALLDGVRDALAPLGLYAGASLTDRLLTVRFLSDDNLICQRVMRDVWQFLRPHLTGKSPVLPRIWLT chain 2: MSTAEQRLRLMQLASSNLPVGGYSWSQGLEWAVEAGWVLDVAAFERWQRRQMTEGFFTVDLPLFARLYRACEQGDIAAAQRWTAYLLACRETRELREEERNRGAAFARLLSDWQPDCPPPWRSLCQQSQLAGMAWLGVRWRIALPEMALSLGYSWIESAVMAGVKLVPFGQQAAQQLILRLCDHYAAEMPRALAAPDGDIGSATPLAAIASARHETQYSRLFRS |  | binds |
